Test results from paper PMC6258710, “Architecture and subunit arrangement of the complete Saccharomyces cerevisiae COMPASS complex” (Scientific Reports, 2018).

T1: Set1 (S. cerevisiae, UniProt P38827 1-1080)
T1 construct: Set1, histone H3K4 methyltransferase subunit of COMPASS, S. cerevisiae, full length; also called TAP-Set1; TAP-SET1; source: S. cerevisiae (strain yCOS2), overexpressed from the GAL1-10 promoter with the six Cps subunits; in lysate for the TAP purification; then purified as the COMPASS complex (IgG-Sepharose, TEV, calmodulin-Sepharose, glycerol gradient or GraFix); not shown: TAP, N-terminal, kept
T1 sequence (looked up): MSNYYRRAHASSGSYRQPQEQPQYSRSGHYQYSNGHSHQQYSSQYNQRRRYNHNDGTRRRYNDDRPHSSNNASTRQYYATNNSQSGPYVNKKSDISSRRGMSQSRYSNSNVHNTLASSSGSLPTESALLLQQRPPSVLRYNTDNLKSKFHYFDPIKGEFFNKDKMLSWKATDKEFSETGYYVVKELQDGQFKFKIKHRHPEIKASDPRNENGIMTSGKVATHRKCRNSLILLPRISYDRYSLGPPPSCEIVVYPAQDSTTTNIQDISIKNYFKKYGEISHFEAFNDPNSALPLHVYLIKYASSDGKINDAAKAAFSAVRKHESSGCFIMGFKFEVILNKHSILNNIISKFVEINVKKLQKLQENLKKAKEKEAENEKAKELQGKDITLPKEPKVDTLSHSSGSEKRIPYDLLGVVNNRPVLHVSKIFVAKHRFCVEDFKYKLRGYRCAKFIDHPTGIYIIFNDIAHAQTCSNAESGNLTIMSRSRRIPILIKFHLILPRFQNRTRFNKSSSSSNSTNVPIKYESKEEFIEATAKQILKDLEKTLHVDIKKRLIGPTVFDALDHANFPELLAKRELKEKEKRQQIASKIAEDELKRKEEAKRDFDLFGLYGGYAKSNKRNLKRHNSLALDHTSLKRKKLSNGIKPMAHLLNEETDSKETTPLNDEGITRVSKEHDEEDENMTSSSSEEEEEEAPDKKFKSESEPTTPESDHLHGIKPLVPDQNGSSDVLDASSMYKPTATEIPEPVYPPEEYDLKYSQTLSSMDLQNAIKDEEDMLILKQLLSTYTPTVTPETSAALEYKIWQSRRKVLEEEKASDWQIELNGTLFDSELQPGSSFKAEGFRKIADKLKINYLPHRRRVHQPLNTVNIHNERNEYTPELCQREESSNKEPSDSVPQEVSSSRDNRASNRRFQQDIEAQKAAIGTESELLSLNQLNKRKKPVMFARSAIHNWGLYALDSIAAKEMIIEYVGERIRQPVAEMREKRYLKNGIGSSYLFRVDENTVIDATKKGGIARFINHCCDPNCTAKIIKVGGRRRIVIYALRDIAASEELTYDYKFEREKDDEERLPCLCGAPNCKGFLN

B1: Cps60/Bre2 (natural protein, S. cerevisiae, UniProt P43132 1-505, looked up)
chain: MKLGIIPYQEGTDIVYKNALQGQQEGKRPNLPQMEATHQIKSSVQGTSYEFVRTEDIPLNRRHFVYRPCSANPFFTILGYGCTEYPFDHSGMSVMDRSEGLSISRDGNDLVSVPDQYGWRTARSDVCIKEGMTYWEVEVIRGGNKKFADGVNNKENADDSVDEVQSGIYEKMHKQVNDTPHLRFGVCRREASLEAPVGFDVYGYGIRDISLESIHEGKLNCVLENGSPLKEGDKIGFLLSLPSIHTQIKQAKEFTKRRIFALNSHMDTMNEPWREDAENGPSRKKLKQETTNKEFQRALLEDIEYNDVVRDQIAIRYKNQLFFEATDYVKTTKPEYYSSDKRERQDYYQLEDSYLAIFQNGKYLGKAFENLKPLLPPFSELQYNEKFYLGYWQHGEARDESNDKNTTSAKKKKQQQKKKKGLILRNKYVNNNKLGYYPTISCFNGGTARIISEEDKLEYLDQIRSAYCVDGNSKVNTLDTLYKEQIAEDIVWDIIDELEQIALQQ
notes: Cps60/Bre2, subunit of COMPASS, S. cerevisiae, full length; source: S. cerevisiae (strain yCOS2), overexpressed from the GAL1-10 promoter; in lysate for the TAP purification; then co-purified with TAP-Set1 as the COMPASS complex
B2: Cps50/Swd1 (natural protein, S. cerevisiae, UniProt P39706 1-426, looked up)
chain: MNILLQDPFAVLKEHPEKLTHTIENPLRTECLQFSPCGDYLALGCANGALVIYDMDTFRPICVPGNMLGAHVRPITSIAWSPDGRLLLTSSRDWSIKLWDLSKPSKPLKEIRFDSPIWGCQWLDAKRRLCVATIFEESDAYVIDFSNDPVASLLSKSDEKQLSSTPDHGYVLVCTVHTKHPNIIIVGTSKGWLDFYKFHSLYQTECIHSLKITSSNIKHLIVSQNGERLAINCSDRTIRQYEISIDDENSAVELTLEHKYQDVINKLQWNCILFSNNTAEYLVASTHGSSAHELYIWETTSGTLVRVLEGAEEELIDINWDFYSMSIVSNGFESGNVYVWSVVIPPKWSALAPDFEEVEENVDYLEKEDEFDEVDEAEQQQGLEQEEEIAIDLRTREQYDVRGNNLLVERFTIPTDYTRIIKMQSS
notes: Cps50/Swd1, WD40 repeat subunit of COMPASS, S. cerevisiae, full length; source: S. cerevisiae (strain yCOS2), overexpressed from the GAL1-10 promoter; in lysate for the TAP purification; then co-purified with TAP-Set1 as the COMPASS complex

Legend:
Set1 [1] = biological target: T1, Set1; experiment: tandem affinity purification (TAP), SDS-PAGE; yeast lysate; TAP-Set1 held on IgG-Sepharose, washed with 350 mM NaCl, TEV elution, calmodulin-Sepharose, EGTA elution, then glycerol gradient centrifugation; subunits seen by SDS-PAGE; details: partners not purified
Set1 [2] = biological target: T1, Set1; experiment: cross-linking; purified COMPASS from the glycerol gradient cross-linked with 1 mM disuccinimidyl suberate (DSS), on ice 2 h; trypsin digest, LC-MS/MS, pLink and xlinkx (XL-MS); details: both partners purified
Cps60/Bre2 = biological target: B1; experiment: as above; details: both partners purified
Set1 [3] = biological target: T1, Set1; experiment: cryo-EM structure; complete COMPASS after GraFix (glutaraldehyde), map at 10.0 Å; subunits placed by DID, PA-NZ-1 Fab and eGFP labelling and by docking of homology models; details: both partners purified
Cps50/Swd1 = biological target: B2; experiment: as above; details: both partners purified

Binder	binding result (Set1 [2])	binding result (Set1 [3])	also measured
B1			binding result (Set1 [1]): binds
Cps40/Spp1 (natural protein, S. cerevisiae, UniProt Q03012 1-353, looked up, Cps40/Spp1, subunit of COMPASS, S. cerevisiae, full length; source: S. cerevisiae (strain yCOS2), overexpressed from the GAL1-10 promoter; in lysate for the TAP purification; then co-purified with TAP-Set1 as the COMPASS complex) MSLPQWCPPHSTLKRNPTTGEDVYCICKRPDYGELMVGCDGCDDWFHFTCLHIPEQFKDLVFSFYCPYCQAGITGKNKDAIINGEGSLPKTLWKRKCRISDCYKPCLQDSKYCSEEHGREFVNDIWSRLKTDEDRAVVKKMVEQTGHIDKFKKFGQLDFIDNNIVVKTDDEKEIFDQIVVRDMTLKTLEDDLQEVQEISLPLFKKKLELLEVYLGWLDNVYTEMRKLDDDAASHVECGKEDSKGTKRKKKKNSSRSRARKNICGYCSTYERIPCSVEEFVRDFGSNEEATKIHEVCTKWKCNRHLDWVSTNQEQYLQQIDSLESMQERLQHLIQARKKQLNIQYYEEILRRGL	binds		
Cps35/Swd2 (natural protein, S. cerevisiae, UniProt P36104 1-329, looked up, Cps35/Swd2, WD40 repeat subunit of COMPASS, S. cerevisiae, full length; source: S. cerevisiae (strain yCOS2), overexpressed from the GAL1-10 promoter; in lysate for the TAP purification; then co-purified with TAP-Set1 as the COMPASS complex) MTTVSINKPNLLKFKHVKSFQPQEKDCGPVTSLNFDDNGQFLLTSSSNDTMQLYSATNCKFLDTIASKKYGCHSAIFTHAQNECIYSSTMKNFDIKYLNLETNQYLRYFSGHGALVNDLKMNPVNDTFLSSSYDESVRLWDLKISKPQVIIPSLVPNCIAYDPSGLVFALGNPENFEIGLYNLKKIQEGPFLIIKINDATFSQWNKLEFSNNGKYLLVGSSIGKHLIFDAFTGQQLFELIGTRAFPMREFLDSGSACFTPDGEFVLGTDYDGRIAIWNHSDSISNKVLRPQGFIPCVSHETCPRSIAFNPKYSMFVTADETVDFYVYDE	binds		
Cps25/Sdc1 (natural protein, S. cerevisiae, UniProt Q03323 1-175, looked up, Cps25/Sdc1, subunit of COMPASS, S. cerevisiae, full length; source: S. cerevisiae (strain yCOS2), overexpressed from the GAL1-10 promoter; in lysate for the TAP purification; then co-purified with TAP-Set1 as the COMPASS complex) MNESENSPQHNEVTVPMVEDTSSNADIPMEQIQREDNKNYDKHDNECFDMNGNHNNNSDNLQFDSVPSSATKDLKNIKSVTNQNVKIEESSSTNSVIEESSEPKISKLENVNLAATVGGSQTRKYLNTNVTPHLLAGMRLIAVQQPEDPLRVLGEYLIEQSNILKSGEKESNASK	binds		binding result (Cps60/Bre2): binds
Cps30/Swd3 (natural protein, S. cerevisiae, UniProt P38123 1-315, looked up, Cps30/Swd3, WD40 repeat subunit of COMPASS, S. cerevisiae, full length; source: S. cerevisiae (strain yCOS2), overexpressed from the GAL1-10 promoter; in lysate for the TAP purification; then co-purified with TAP-Set1 as the COMPASS complex) MFQFVTPVGTQNGLKATCAKISPDGQFLAITQGLNILIYDINRRTVSQTLVTSHARPFSELCWSPDGQCIATASDDFSVEIIHLSYGLLHTFIGHTAPVISLTFNRKGNLLFTSSMDESIKIWDTLNGSLMKTISAHSEAVVSVDVPMNDSSILSSGSYDGLIRIFDAETGHCLKTLTYDKDWKRENGVVPISQVKFSENARYLLVKSLDGVVKIWDCIGGCVVRTFQVQPLEKGVLHHSCGMDFLNPEDGSTPLVISGYENGDIYCWNSDTKSLLQLLDGSLYHHSSPVMSIHCFGNIMCSLALNGDCCLWRWV		binds	binding result (Cps50/Swd1): binds
B2		binds	
